According to patent publication US20170269069:

Tested on: recombinant histone H3, wild type

Row | Protein | H3NT protease activity (in vitro H3NT cleavage assay, Western blot with the H3CT antibody)
1 | recombinant USP39 (enzyme, UniProt Q3TIX9 1-564, looked up, species assumed, His tag) Ubiquitin carboxyl-terminal hydrolase 39: MSSRSKRQSHGSTRGKRESESRGSSGRIKKERDREKEPEAASSRGSPVRVKREAEPAAREVPAPALPVVRVKREREADEDSEPEREVRAKNGRVDSEDRRSRHCPYLDTINRSVLDFDFEKLCSISLSHINAYACLVCGKYFQGRGLKSHAYIHSVQFSHHVFLNLHTLKFYCLPDNYEIIDSSLEDITYVLKPTFTKQQIANLDKQAKLSRAYDGTTYLPGIVGLNNIKANDYANAVLQALSNVPPLRNYFLEEDNYKNIKRPPGDIMFLLVQRFGELMRKLWNPRNFKAHVSPHEMLQAVVLCSKKTFQITKQGDGVDFLSWFLNALHSALGGTKKKKKTIVNDVFQGSMRIFTKKLPHPDLPAEEKEQLLHNDEYQETMVESTFMYLTLDLPTAPLYKDEKEQLIIPQVPLFNILAKFNGITEKEYKTYKENFLKRFQLTKLPPYLIFCIKRFTKNNFFVEKNPTIVNFPITNVDLREYLSEEVQAVHKNTTYDLIANIVHDGKPSEGSYRIHVLHHGTGKWYELQDLQVTDILPQMITLSEAYIQIWKRRDNDETNQQGA | only rMMP-9 possessed H3NT protease activity
2 | recombinant DIM1 (enzyme, UniProt P83877 1-142, looked up, species assumed, His tag) Thioredoxin-like protein 4A: MSYMLPHLHNGWQVDQAILSEEDRVVVIRFGHDWDPTCMKMDEVLYSIAEKVKNFAVIYLVDITEVPDFNKMYELYDPCTVMFFFRNKHIMIDLGTGNNNKINWAMEDKQEMVDIIETVYRGARKGRGLVVSPKDYSTKYRY | only rMMP-9 possessed H3NT protease activity
